Test results published in patent publication US20170107294A1, “ANTI-CD14 ANTIBODIES AND USES THEREOF” (Nordlandssykehuset HF, priority 2014, published 2017).

B1: OmCI: endotoxin-free recombinant bacterial OmCI (coversin), a 16.8-kDa protein, complement C5 inhibitor (protein, UniProt Q5YD59 19-168, looked up)
Complement inhibitor: DSESDCTGSEPVDAFQAFSEGKEAYVLVRSTDPKARDCLKGEPAGEKQDNTLPVMMTFKNGTDWASTDWTFTLDGAKVTATLGNLTQNREVVYDSQSHHCHVDKVEKEVPDYEMWMLDAGGLEVEVECCRQKLEELASGRNQMYPHLKDC
B2: r18D11: recombinant anti-human CD14 mouse/human chimeric IgG2/4 Ab; VL SEQ ID NO:1, VH SEQ ID NO:2 (antibody, V domains shown)
VH: MGWSCIILFLVATATGVHSEVQLVESGGGLMQPKGSLKLSCAASGFTFKTYALNWVRQAPGTGLEWVARIRSKSNNYTTYYADSVKDRFTISRDDSQNMLYLQMNNLKTEDTAMYYCVRPQSGTSFAYWGQGTLVTVSAA
VL: MGWSCIILFLVATATGVHSNIVLTQSPASLAVSLGQRATISCRASESVDSYGNSFMHWYQQKPGQPPKLLIYLASNLESGVPARFSGSGSRTDFTLTIDPVEADDVATYYCQQNNGDPYTFGGGTKLEIIR
modifications: human IgG2/4 constant regions
B3: F(ab)92 fragment of 18D11: F(ab)92 fragment of the murine anti-human CD14 clone 18D11 (Diatec) (antibody, V domains shown)
VH: EVQLVESGGGLMQPKGSLKLSCAASGFTFKTYALNWVRQAPGTGLEWVARIRSKSNNYTTYYADSVKDRFTISRDDSQNMLYLQMNNLKTEDTAMYYCVRPQSGTSFAYWGQGTLVTVSAA
VL: NIVLTQSPASLAVSLGQRATISCRASESVDSYGNSFMHWYQQKPGQPPKLLIYLASNLESGVPARFSGSGSRTDFTLTIDPVEADDVATYYCQQNNGDPYTFGGGTKLEIIR
B4: 18D11: mouse anti-human CD14 IgG1 clone 18D11 (Diatec), original murine clone (antibody, V domains shown)
VH: B3 VH
VL: B3 VL

How the values were obtained:
complement activation = conditions: pigs; cited from earlier work
porcine whole blood = experiment: rMil2 combined with C5 inhibitor OmCI: cytokine production in porcine whole blood ex vivo; format: cell-based; conditions: E. coli-incubated porcine whole blood
Method: (§1) The whole blood model has been described in detail previously (36). Fresh human venous or porcine arterial blood was drawn directly into tubes containing the anticoagulant lepirudin (Pharmion) at a final concentration of 50 mg/ml. In 1.8-ml Cryo Tube vials (Nunc, Roskilde, Denmark), the blood was preincubated with up to 20 mg/ml anti-human CD14 (r18D11 or 18D11), or 50 mg/ml anti-porcine CD14 (rMil2 or Mil2) at 37° C. for 10 min prior to an additional 2-h incubation in the presence of 100 ng/ml ultrapure LPS from Escherichia coli 0111:B4 (InvivoGen, San Diego, Calif.) for human blood or 1 3 105/ml heat-inactivated E. coli (strain LE392, ATCC33572) for porcine blood. As negative controls, PBS with MgCl2 and CaCl2 (Sigma-Aldrich) and isotype controls were used. Adverse effects were tested using nonactivated whole blood samples. After the addition of 10 mM (human) or 20 mM (porcine) EDTA, plasma was gained by 15 min centrifugation at 3220 3 g and 4° C. Levels of TNF, IL-6, and IL-1b in human plasma were determined using Bioplex technology (Bio-Rad Laboratories AB). Levels of TNF, IL-1b, and IL-8 in porcine plasma were determined using ELISA (Quantikine, R&D Systems, Minneapolis, Minn.). Platelet count was quantified by impedance using a CELL-DYN Sapphire hematology analyzer (Abbott Laboratories, Abbott Park, Ill.).
Whole blood was incubated with 1 3 106 E. coli per milliliter for 2 h at 37° C. in the absence or presence of inhibitors and controls. TNF, IL-1b, and IL-8 blood was analyzed as described above.

human whole blood [1] = experiment: Whole blood ex vivo model of inflammation, LPS-induced cytokine release in human blood; format: cell-based; parameters: Ab concentration at which maximum inhibitory effects were reached: unit not given here; conditions: for E. coli ultrapure LPS-induced release of IL-1b, TNF and IL-6: 100 ng/ml LPS, dose-dependent; for Ab concentration at which maximum inhibitory effects were reached: LPS-induced IL-1b, TNF, IL-6 release
Method: as §1

human CD14 = target: T1, human CD14 (Homo sapiens, UniProt P08571); experiment: CD14 binding in flow cytometry, human whole blood (displacement of 18D11 from monocytes)
T1 construct: endogenous in cells; host or cells: monocytes in fresh human whole blood (lepirudin)
T1 sequence (P08571 20-345): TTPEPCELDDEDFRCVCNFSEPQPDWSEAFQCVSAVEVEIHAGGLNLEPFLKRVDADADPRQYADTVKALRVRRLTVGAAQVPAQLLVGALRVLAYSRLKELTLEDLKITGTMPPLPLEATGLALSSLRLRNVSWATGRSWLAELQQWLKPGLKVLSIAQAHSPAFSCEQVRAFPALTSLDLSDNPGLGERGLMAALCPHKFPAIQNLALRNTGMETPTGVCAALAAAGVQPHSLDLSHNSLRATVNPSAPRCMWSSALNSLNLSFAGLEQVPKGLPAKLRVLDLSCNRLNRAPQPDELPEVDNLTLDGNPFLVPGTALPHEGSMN
Method: Fresh human or porcine whole blood was drawn into tubes containing the anticoagulants lepirudin (Refludan; Pharmion, Copenhagen, Denmark) or EDTA, respectively. Blood samples were preincubated for 10 min with Ab, #20 mg/ml anti-human CD14 Abs r18D11, 18D11 F(ab)92 (batch 2068, lot 1383), or isotype controls raNIP and mIgG1 F(ab)92 (lot 1501), or […] anti-porcine CD14 Abs rMil2, Mil2 (lot 1106), or the isotype controls 4770 RECOMBINANT ANTI-CD14 Abs Downloaded from University of Oslo, Library of Medicine and Health Science on Jan. 24, 2014 for IgG2/4 and mIgG2b, eculizumab (Soliris) and mIgG2b (lot 1631), respectively. […] Their binding was detected either by using a secondary PEconjugated anti-mouse IgG or through direct FITC fluorescence. […] In subsequent flow cytometry analyses, human monocyte and porcine granulocyte populations were selected based on the forward scatter-side scatter dot plot, and CD14 binding was recorded as mean or median fluorescence intensity, respectively. […] Fluorescence intensities in the presence of the fluorescently labeled Abs only were set to 100%. Flow cytometry analyses on human samples were performed using an LSRII and FACSDiva software version 5.0.3; porcine samples were analyzed on a FACSCalibur using Cell Quest Pro version 5.2.1 for data acquisition (all from BD Biosciences).

human whole blood [2] = experiment: Unwanted effects (complement activation, oxidative burst) in nonstimulated human whole blood; format: cell-based; conditions: 10 mg/ml Ab; for monocyte oxidative burst: flow cytometry; for complement activation: not shown
Method: as §1

| Molecule | inhibition of complement activation (complement activation) | IL-1b release (effect in words) (porcine whole blood) | IL-8 release (effect in words) (porcine whole blood) | TNF release (effect in words) (porcine whole blood) | E. coli ultrapure LPS-induced release of IL-1b, TNF and IL-6 (human whole blood [1]) | Ab concentration at which maximum inhibitory effects were reached (human whole blood [1]) | 18D11 displaced from its binding sites on human monocytes (human CD14; 10 mg/ml r18D11 vs 10 mg/ml 18D11 (equimolar)) | binding to CD14 on human monocytes (competition with 18D11) (human CD14; human whole blood) | monocyte oxidative burst (human whole blood [2]) | complement activation (human whole blood [2]) |
| --- | --- | --- | --- | --- | --- | --- | --- | --- | --- | --- |
| B1 | inhibit complement activation effectively | not significantly reduced | significantly reduced to almost baseline | significantly reduced | – | – | – | – | – | – |
| B2 | – | – | – | – | inhibited | 10 | 50% | dose-dependently outcompeted | did not induce significant oxidative burst | same low level of complement activation |
| B3 | – | – | – | – | – | – | – | – | – | did not |
| B4 | – | – | – | – | inhibited | 10 | – | – | significantly induced | same low level of complement activation |
